Assay results taken from patent EP4692367A1.

Columns and labels:
[1] = target: LgBiT-p62 (Homo sapiens (Human)) (UniProt Q13501); assay: NanoBiT split-luciferase complementation in HeLa cells co-transfected with pLgBiT-p62 and pSmBiT-DDX5; 10 uM AUTAC2-2G for 12 h; luminescence 10 min after start of measurement
[2] = target: LgBiT-p62 (Homo sapiens (Human)) (UniProt Q13501); assay: NanoBiT split-luciferase complementation in HeLa cells co-transfected with pLgBiT-p62 and pSmBiT-DDX5; each of compounds 5 to 33 at 10 uM for 24 h; luminescence 10 min after start of measurement
[3] = target: LgBiT-p62 (Homo sapiens (Human)) (UniProt Q13501); assay: NanoBiT split-luciferase complementation in HeLa cells co-transfected with pLgBiT-p62 and pSmBiT-DDX5; 10 uM 8-nitro-cGMP for 24 h; luminescence 10 min after start of measurement
[4] = target: LgBiT-p62 (Homo sapiens (Human)) (UniProt Q13501); assay: NanoBiT split-luciferase complementation in HeLa cells co-transfected with pLgBiT-p62 and pSmBiT-DDX5; 10 uM FBnG for 24 h; luminescence 10 min after start of measurement
[5] = target: LgBiT-p62 (Homo sapiens (Human)) (UniProt Q13501); assay: NanoBiT split-luciferase complementation in HeLa cells co-transfected with pLgBiT-p62 and pSmBiT-DDX5; 10 uM AUTAC4-2G for 12 h; luminescence 10 min after start of measurement

Chain of SmBiT-DDX5 (P17844 whole entry): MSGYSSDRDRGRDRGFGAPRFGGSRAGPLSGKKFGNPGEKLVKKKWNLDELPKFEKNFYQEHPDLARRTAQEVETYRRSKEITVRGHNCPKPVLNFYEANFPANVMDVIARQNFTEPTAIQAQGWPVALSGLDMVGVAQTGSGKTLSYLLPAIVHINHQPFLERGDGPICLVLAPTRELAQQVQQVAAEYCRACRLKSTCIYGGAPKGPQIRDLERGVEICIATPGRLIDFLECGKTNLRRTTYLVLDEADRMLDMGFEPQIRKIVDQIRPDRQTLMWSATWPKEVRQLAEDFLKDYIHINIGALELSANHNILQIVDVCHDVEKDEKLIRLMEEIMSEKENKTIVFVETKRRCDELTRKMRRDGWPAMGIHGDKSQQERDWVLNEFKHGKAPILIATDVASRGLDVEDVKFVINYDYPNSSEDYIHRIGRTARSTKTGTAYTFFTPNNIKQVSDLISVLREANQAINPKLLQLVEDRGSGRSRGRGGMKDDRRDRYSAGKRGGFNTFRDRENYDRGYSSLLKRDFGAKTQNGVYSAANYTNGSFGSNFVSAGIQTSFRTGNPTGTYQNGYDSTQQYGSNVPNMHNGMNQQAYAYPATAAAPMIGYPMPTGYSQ

- emission intensity relative to cells treated with DMSO (times (fold over DMSO-treated cells)) [1]: > 1000
- emission intensity relative to cells treated with DMSO (times (fold over DMSO-treated cells)) [2]: > 1000
- emission intensity relative to cells treated with DMSO (times (fold over DMSO-treated cells)) [3]: > 1000
- emission intensity relative to cells treated with DMSO (times (fold over DMSO-treated cells)) [4]: > 1000
- emission intensity relative to cells treated with DMSO (times (fold over DMSO-treated cells)) [5]: > 1000
Substance: SmBiT-DDX5 (from UniProt P17844 1-614) (enzyme)
